Measured values from patent US20260232827A1 (Zymeworks, published 2026).

T1: mouse NaPi2b (mouse, UniProt Q9DBP0 1-697)
T1 construct: also called Ms NaPi2b; CL #13476
T1 sequence: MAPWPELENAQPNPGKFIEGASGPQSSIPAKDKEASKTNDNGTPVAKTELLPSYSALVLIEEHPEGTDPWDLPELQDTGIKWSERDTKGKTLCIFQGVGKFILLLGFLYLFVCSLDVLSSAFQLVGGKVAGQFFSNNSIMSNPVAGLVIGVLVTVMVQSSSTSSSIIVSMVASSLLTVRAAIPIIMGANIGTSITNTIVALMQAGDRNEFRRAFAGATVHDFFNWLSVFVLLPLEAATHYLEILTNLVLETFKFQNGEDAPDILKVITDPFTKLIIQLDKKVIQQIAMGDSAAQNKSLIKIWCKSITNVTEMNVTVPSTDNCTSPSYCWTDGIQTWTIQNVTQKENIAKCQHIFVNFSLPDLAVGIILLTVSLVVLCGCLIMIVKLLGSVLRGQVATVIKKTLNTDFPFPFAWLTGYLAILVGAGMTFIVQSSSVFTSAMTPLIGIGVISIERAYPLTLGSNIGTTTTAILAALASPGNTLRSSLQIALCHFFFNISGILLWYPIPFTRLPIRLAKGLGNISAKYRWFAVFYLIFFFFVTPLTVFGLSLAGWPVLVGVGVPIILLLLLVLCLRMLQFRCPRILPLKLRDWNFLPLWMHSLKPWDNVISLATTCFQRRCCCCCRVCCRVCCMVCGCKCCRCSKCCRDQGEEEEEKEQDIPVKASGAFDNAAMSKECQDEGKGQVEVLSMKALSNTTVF

T2: human sodium-dependent phosphate transporter 2B (NaPi2b) (human, UniProt O95436 1-690)
T2 construct: UniProt ID is given as 095436 [sic]; also called hNaPi2b; Hu NaPi2b
T2 sequence: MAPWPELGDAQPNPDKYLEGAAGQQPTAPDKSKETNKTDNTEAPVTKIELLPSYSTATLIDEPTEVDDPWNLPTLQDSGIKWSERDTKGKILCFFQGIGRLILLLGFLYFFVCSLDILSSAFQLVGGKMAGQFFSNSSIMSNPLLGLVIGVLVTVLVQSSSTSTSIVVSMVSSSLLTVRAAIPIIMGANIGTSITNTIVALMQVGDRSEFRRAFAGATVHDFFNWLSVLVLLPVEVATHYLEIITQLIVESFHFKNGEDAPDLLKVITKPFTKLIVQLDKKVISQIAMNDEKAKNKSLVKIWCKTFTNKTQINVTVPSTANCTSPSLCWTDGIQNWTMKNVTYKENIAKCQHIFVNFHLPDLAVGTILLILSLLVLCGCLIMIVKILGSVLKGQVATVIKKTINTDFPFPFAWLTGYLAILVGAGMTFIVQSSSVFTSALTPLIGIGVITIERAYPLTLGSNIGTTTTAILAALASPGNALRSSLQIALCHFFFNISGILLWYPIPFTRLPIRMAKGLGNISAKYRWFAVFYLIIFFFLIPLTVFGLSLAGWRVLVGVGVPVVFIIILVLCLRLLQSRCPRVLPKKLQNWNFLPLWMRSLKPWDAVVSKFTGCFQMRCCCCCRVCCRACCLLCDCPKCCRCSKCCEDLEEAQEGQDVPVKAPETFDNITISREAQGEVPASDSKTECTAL

T3: cynomolgus monkey NaPi2b (cynomolgus monkey, UniProt O95436 1-690 (human entry))
T3 construct: also called Cyno NaPi2b; Cy NaPi2b
T3 chain: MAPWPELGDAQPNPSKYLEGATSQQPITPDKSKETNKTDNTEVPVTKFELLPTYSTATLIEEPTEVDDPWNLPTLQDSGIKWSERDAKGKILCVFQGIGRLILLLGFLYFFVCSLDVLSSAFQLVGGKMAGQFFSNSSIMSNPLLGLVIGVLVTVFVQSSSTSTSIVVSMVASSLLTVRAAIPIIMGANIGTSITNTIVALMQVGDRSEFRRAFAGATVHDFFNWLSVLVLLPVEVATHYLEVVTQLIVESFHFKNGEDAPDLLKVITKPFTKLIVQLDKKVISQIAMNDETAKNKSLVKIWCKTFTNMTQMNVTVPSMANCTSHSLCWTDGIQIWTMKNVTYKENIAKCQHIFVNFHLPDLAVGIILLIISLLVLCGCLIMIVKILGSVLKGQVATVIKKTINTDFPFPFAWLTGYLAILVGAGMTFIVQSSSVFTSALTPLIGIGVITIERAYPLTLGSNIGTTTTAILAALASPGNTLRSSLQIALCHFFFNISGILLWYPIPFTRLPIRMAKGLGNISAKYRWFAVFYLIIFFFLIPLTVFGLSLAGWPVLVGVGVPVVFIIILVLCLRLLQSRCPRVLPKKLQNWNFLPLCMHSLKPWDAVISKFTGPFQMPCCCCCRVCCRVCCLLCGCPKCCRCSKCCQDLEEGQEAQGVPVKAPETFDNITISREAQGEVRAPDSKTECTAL


How the values were obtained:
[1] = target: T1, mouse NaPi2b; assay: flow cytometry on HEK293-6e cells transfected with mouse NaPi2b, 24 h at 4 C, anti-human IgG Fc AF647
Protocol: (§1) Following transfection, cells were seeded at 50,000 cells/well in conical-bottom 96-well plates and treated with test antibody or antibody-drug conjugate for 24 hours at 4° C. to prevent internalization. […] Following incubation and washing, fluorescence was detected by flow cytometry on a BD LSRFortessa™ Cell Analyzer (BD Biosciences, Franklin Lake, NJ) with 1,000 minimum events collected per well.

[2] = target: T2, human sodium-dependent phosphate …; assay: flow cytometry on HEK293-6e cells transiently transfected with human NaPi2b, antibody 18-24 h at 4 C, anti-human IgG Fc AF647
Protocol: (§2) Briefly, HEK293-6e cells were transfected for ~24 hours to transiently express human NaPi2b, cynomolgus or mouse NaPi2b, at 1 μg of DNA per 1 million cells. Following transfection, 50,000 cells per well were seeded in V-bottom 96-well plates and incubated with 200 nM of primary antibody for 18-24 hours at 4° C. to prevent internalization. […] Following staining and washing, fluorescence was detected by flow cytometry on BD LSRFortessa™ Cell Analyzer (BD Biosciences, Franklin Lake, NJ) with 10,000 minimum events collected per well. The AF647/APC-A GeoMean (fluorescence signal geometric mean, proportional to anti-Human AF647 binding) was calculated for the live singlet cell population for each primary antibody using FlowJo™ v8 software (BD Biosciences, Franklin Lake, NJ). The Bmax and Kd of each primary antibody were calculated using GraphPad Prism Version 9 (GraphPad Software, San Diego, CA)

[3] = target: T3, cynomolgus monkey NaPi2b; assay: flow cytometry on HEK293-6e cells transfected with cynomolgus monkey NaPi2b, 24 h at 4 C, anti-human IgG Fc AF647
Protocol: as §1

[4] = target: T2, human sodium-dependent phosphate …; assay: flow cytometry, HEK293-6e cells transfected with human NaPi2b
Protocol: as §2

[5] = target: T2, human sodium-dependent phosphate …; assay: flow cytometry, HEK293-6e cells transfected with human NaPi2b; apparent Kd
Protocol: as §2

[6] = target: T3, cynomolgus monkey NaPi2b; assay: flow cytometry, HEK293-6e cells transfected with cynomolgus NaPi2b
Protocol: as §2

[7] = target: T3, cynomolgus monkey NaPi2b; assay: flow cytometry, HEK293-6e cells transfected with cynomolgus NaPi2b; apparent Kd
Protocol: as §2

Binder | binding result [1] | binding result [2] | EC50 (read off the curve) [2] [nM] | EC50 (read off the curve) [3] [nM] | Bmax [4] | Kd [5] [nM] | Bmax [6] | Kd [7] [nM]
v22277 (palivizumab, anti-RSV negative control, heterodimeric Fc) (antibody, human IgG1, kappa, also called neg control) heavy 1: GQVTLRESGPALVKPTQTLTLTCTFSGFSLSTSGMSVGWIRQPPGKALEWLADIWWDDKKDYNPSLKSRLTISKDTSKNQVVLKVTNMDPADTATYYCARSMITNWYFDVWGAGTTVTVSSASTKGPSVFPLAPSSKSTSGGTAALGCLVKDYFPEPVTVSWNSGALTSGVHTFPAVLQSSGLYSLSSVVTVPSSSLGTQTYICNVNHKPSNTKVDKKVEPKSCDKTHTCPPCPAPELLGGPSVFLFPPKPKDTLMISRTPEVTCVVVDVSHEDPEVKFNWYVDGVEVHNAKTKPREEQYNSTYRVVSVLTVLHQDWLNGKEYKCKVSNKALPAPIEKTISKAKGQPREPQVYVYPPSRDELTKNQVSLTCLVKGFYPSDIAVEWESNGQPENNYKTTPPVLDSDGSFALVSKLTVDKSRWQQGNVFSCSVMHEALHNHYTQKSLSLSPG heavy 2: not shown light: GDIQMTQSPSTLSASVGDRVTITCKSQLSVGYMHWYQQKPGKAPKLLIYDTSKLASGVPSRFSGSGSGTEFTLTISSLQPDDFATYYCFQGSGYPFTFGGGTKLEIKRTVAAPSVFIFPPSDEQLKSGTASVVCLLNNFYPREAKVQWKVDNALQSGNSQESVTEQDSKDSTYSLSSTLTLSKADYEKHKVYACEVTHQGLSSPVTKSFNRGEC | no binding (tested: 200 nM) | no binding (tested: 200 nM) |  |  |  |  |  | 
v18993 (lifastuzumab), reference anti-NaPi2b antibody (antibody, human IgG1, kappa) heavy 1: GEVQLVESGGGLVQPGGSLRLSCAASGFSFSDFAMSWVRQAPGKGLEWVATIGRVAFHTYYPDSMKGRFTISRDNSKNTLYLQMNSLRAEDTAVYYCARHRGFDVGHFDFWGQGTLVTVSSASTKGPSVFPLAPSSKSTSGGTAALGCLVKDYFPEPVTVSWNSGALTSGVHTFPAVLQSSGLYSLSSVVTVPSSSLGTQTYICNVNHKPSNTKVDKKVEPKSCDKTHTCPPCPAPELLGGPSVFLFPPKPKDTLMISRTPEVTCVVVDVSHEDPEVKFNWYVDGVEVHNAKTKPREEQYNSTYRVVSVLTVLHQDWLNGKEYKCKVSNKALPAPIEKTISKAKGQPREPQVYVYPPSRDELTKNQVSLTCLVKGFYPSDIAVEWESNGQPENNYKTTPPVLDSDGSFALVSKLTVDKSRWQQGNVFSCSVMHEALHNHYTQKSLSLSPG heavy 2: not shown light: GDIQMTQSPSSLSASVGDRVTITCRSSETLVHSSGNTYLEWYQQKPGKAPKLLIYRVSNRFSGVPSRFSGSGSGTDFTLTISSLQPEDFATYYCFQGSFNPLTFGQGTKVEIKRTVAAPSVFIFPPSDEQLKSGTASVVCLLNNFYPREAKVQWKVDNALQSGNSQESVTEQDSKDSTYSLSSTLTLSKADYEKHKVYACEVTHQGLSSPVTKSFNRGEC |  |  | ~1 | ~5 | 1610 | 1.22 | 1560 | 6.27
